Molecular target: T1, FcγRIa extracellular domain with C-terminal His tag (human, UniProt P12314 16-292)
T1 construct: extracellular domain; Expressed in FreeStyle293 cells; analyte in Biacore; also called FcgRI; FcgRIa
Assay: SPR Biacore, antibody captured, FcγRIa analyte; vs GpH7-B3/GpL16-k0 = 100

T1 sequence (P12314 16-292): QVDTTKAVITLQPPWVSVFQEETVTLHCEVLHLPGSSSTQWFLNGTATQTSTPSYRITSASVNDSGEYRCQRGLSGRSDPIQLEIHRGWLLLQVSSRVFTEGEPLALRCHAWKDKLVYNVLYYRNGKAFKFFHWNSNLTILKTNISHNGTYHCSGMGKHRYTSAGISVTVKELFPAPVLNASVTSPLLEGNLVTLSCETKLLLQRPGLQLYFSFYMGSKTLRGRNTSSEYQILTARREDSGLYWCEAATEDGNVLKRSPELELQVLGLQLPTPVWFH

Ho/Con_1a	Binder
101 relative (control = 100)	GpH7-B3 variant E269_08L/GpL16-k0 (Ho Ab) (antibody, human IgG1, kappa, Ho Ab: alteration in both H chains) heavy: not shown light: DIVMTQSPLSLPVTPGEPASISCQASESLVHSNRNTYLHWYLQKPGQSPQLLIYKVSNRFSGVPDRFSGSGSGTDFTLKISRVEAEDVGVYYCSQNTHVPPTFGQGTKVEIERTVAAPSVFIFPPSDEQLKSGTASVVCLLNNFYPREAKVQWKVDNALQSGNSQESVTEQDSKDSTYSLSSTLTLSKADYEKHKVYACEVTHQGLSSPVTKSFNRGEC
103 relative (control = 100)	GpH7-B3 variant I336_02A/GpL16-k0 (Ho Ab) (antibody, human IgG1, kappa, Ho Ab: alteration in both H chains) heavy: not shown light: DIVMTQSPLSLPVTPGEPASISCQASESLVHSNRNTYLHWYLQKPGQSPQLLIYKVSNRFSGVPDRFSGSGSGTDFTLKISRVEAEDVGVYYCSQNTHVPPTFGQGTKVEIERTVAAPSVFIFPPSDEQLKSGTASVVCLLNNFYPREAKVQWKVDNALQSGNSQESVTEQDSKDSTYSLSSTLTLSKADYEKHKVYACEVTHQGLSSPVTKSFNRGEC
101 relative (control = 100)	GpH7-B3 variant K326_16H/GpL16-k0 (Ho Ab) (antibody, human IgG1, kappa, Ho Ab: alteration in both H chains) heavy: not shown light: DIVMTQSPLSLPVTPGEPASISCQASESLVHSNRNTYLHWYLQKPGQSPQLLIYKVSNRFSGVPDRFSGSGSGTDFTLKISRVEAEDVGVYYCSQNTHVPPTFGQGTKVEIERTVAAPSVFIFPPSDEQLKSGTASVVCLLNNFYPREAKVQWKVDNALQSGNSQESVTEQDSKDSTYSLSSTLTLSKADYEKHKVYACEVTHQGLSSPVTKSFNRGEC
102 relative (control = 100)	GpH7-B3 variant P271_06M/GpL16-k0 (Ho Ab) (antibody, human IgG1, kappa, Ho Ab: alteration in both H chains) heavy: not shown light: DIVMTQSPLSLPVTPGEPASISCQASESLVHSNRNTYLHWYLQKPGQSPQLLIYKVSNRFSGVPDRFSGSGSGTDFTLKISRVEAEDVGVYYCSQNTHVPPTFGQGTKVEIERTVAAPSVFIFPPSDEQLKSGTASVVCLLNNFYPREAKVQWKVDNALQSGNSQESVTEQDSKDSTYSLSSTLTLSKADYEKHKVYACEVTHQGLSSPVTKSFNRGEC
100 relative (control = 100)	GpH7-B3 variant P271_04F/GpL16-k0 (Ho Ab) (antibody, human IgG1, kappa, Ho Ab: alteration in both H chains) heavy: not shown light: DIVMTQSPLSLPVTPGEPASISCQASESLVHSNRNTYLHWYLQKPGQSPQLLIYKVSNRFSGVPDRFSGSGSGTDFTLKISRVEAEDVGVYYCSQNTHVPPTFGQGTKVEIERTVAAPSVFIFPPSDEQLKSGTASVVCLLNNFYPREAKVQWKVDNALQSGNSQESVTEQDSKDSTYSLSSTLTLSKADYEKHKVYACEVTHQGLSSPVTKSFNRGEC
101 relative (control = 100)	GpH7-B3 variant E333_13S/GpL16-k0 (Ho Ab) (antibody, human IgG1, kappa, Ho Ab: alteration in both H chains) heavy: not shown light: DIVMTQSPLSLPVTPGEPASISCQASESLVHSNRNTYLHWYLQKPGQSPQLLIYKVSNRFSGVPDRFSGSGSGTDFTLKISRVEAEDVGVYYCSQNTHVPPTFGQGTKVEIERTVAAPSVFIFPPSDEQLKSGTASVVCLLNNFYPREAKVQWKVDNALQSGNSQESVTEQDSKDSTYSLSSTLTLSKADYEKHKVYACEVTHQGLSSPVTKSFNRGEC
104 relative (control = 100)	GpH7-B3 variant I336_04F/GpL16-k0 (Ho Ab) (antibody, human IgG1, kappa, Ho Ab: alteration in both H chains) heavy: not shown light: DIVMTQSPLSLPVTPGEPASISCQASESLVHSNRNTYLHWYLQKPGQSPQLLIYKVSNRFSGVPDRFSGSGSGTDFTLKISRVEAEDVGVYYCSQNTHVPPTFGQGTKVEIERTVAAPSVFIFPPSDEQLKSGTASVVCLLNNFYPREAKVQWKVDNALQSGNSQESVTEQDSKDSTYSLSSTLTLSKADYEKHKVYACEVTHQGLSSPVTKSFNRGEC
102 relative (control = 100)	GpH7-B3 variant P271_03V/GpL16-k0 (Ho Ab) (antibody, human IgG1, kappa, Ho Ab: alteration in both H chains) heavy: not shown light: DIVMTQSPLSLPVTPGEPASISCQASESLVHSNRNTYLHWYLQKPGQSPQLLIYKVSNRFSGVPDRFSGSGSGTDFTLKISRVEAEDVGVYYCSQNTHVPPTFGQGTKVEIERTVAAPSVFIFPPSDEQLKSGTASVVCLLNNFYPREAKVQWKVDNALQSGNSQESVTEQDSKDSTYSLSSTLTLSKADYEKHKVYACEVTHQGLSSPVTKSFNRGEC
103 relative (control = 100)	GpH7-B3 variant K326_14T/GpL16-k0 (Ho Ab) (antibody, human IgG1, kappa, Ho Ab: alteration in both H chains) heavy: not shown light: DIVMTQSPLSLPVTPGEPASISCQASESLVHSNRNTYLHWYLQKPGQSPQLLIYKVSNRFSGVPDRFSGSGSGTDFTLKISRVEAEDVGVYYCSQNTHVPPTFGQGTKVEIERTVAAPSVFIFPPSDEQLKSGTASVVCLLNNFYPREAKVQWKVDNALQSGNSQESVTEQDSKDSTYSLSSTLTLSKADYEKHKVYACEVTHQGLSSPVTKSFNRGEC
101 relative (control = 100)	GpH7-B3 variant P271_12R/GpL16-k0 (Ho Ab) (antibody, human IgG1, kappa, Ho Ab: alteration in both H chains) heavy: not shown light: DIVMTQSPLSLPVTPGEPASISCQASESLVHSNRNTYLHWYLQKPGQSPQLLIYKVSNRFSGVPDRFSGSGSGTDFTLKISRVEAEDVGVYYCSQNTHVPPTFGQGTKVEIERTVAAPSVFIFPPSDEQLKSGTASVVCLLNNFYPREAKVQWKVDNALQSGNSQESVTEQDSKDSTYSLSSTLTLSKADYEKHKVYACEVTHQGLSSPVTKSFNRGEC
100 relative (control = 100)	GpH7-B3 variant E269_15Y/GpL16-k0 (Ho Ab) (antibody, human IgG1, kappa, Ho Ab: alteration in both H chains) heavy: not shown light: DIVMTQSPLSLPVTPGEPASISCQASESLVHSNRNTYLHWYLQKPGQSPQLLIYKVSNRFSGVPDRFSGSGSGTDFTLKISRVEAEDVGVYYCSQNTHVPPTFGQGTKVEIERTVAAPSVFIFPPSDEQLKSGTASVVCLLNNFYPREAKVQWKVDNALQSGNSQESVTEQDSKDSTYSLSSTLTLSKADYEKHKVYACEVTHQGLSSPVTKSFNRGEC
104 relative (control = 100)	GpH7-B3 variant I336_01G/GpL16-k0 (Ho Ab) (antibody, human IgG1, kappa, Ho Ab: alteration in both H chains) heavy: not shown light: DIVMTQSPLSLPVTPGEPASISCQASESLVHSNRNTYLHWYLQKPGQSPQLLIYKVSNRFSGVPDRFSGSGSGTDFTLKISRVEAEDVGVYYCSQNTHVPPTFGQGTKVEIERTVAAPSVFIFPPSDEQLKSGTASVVCLLNNFYPREAKVQWKVDNALQSGNSQESVTEQDSKDSTYSLSSTLTLSKADYEKHKVYACEVTHQGLSSPVTKSFNRGEC
101 relative (control = 100)	GpH7-B3 variant K326_15Y/GpL16-k0 (Ho Ab) (antibody, human IgG1, kappa, Ho Ab: alteration in both H chains) heavy: not shown light: DIVMTQSPLSLPVTPGEPASISCQASESLVHSNRNTYLHWYLQKPGQSPQLLIYKVSNRFSGVPDRFSGSGSGTDFTLKISRVEAEDVGVYYCSQNTHVPPTFGQGTKVEIERTVAAPSVFIFPPSDEQLKSGTASVVCLLNNFYPREAKVQWKVDNALQSGNSQESVTEQDSKDSTYSLSSTLTLSKADYEKHKVYACEVTHQGLSSPVTKSFNRGEC
104 relative (control = 100)	GpH7-B3 variant G236_20W/GpL16-k0 (Ho Ab) (antibody, human IgG1, kappa, Ho Ab: alteration in both H chains) heavy: not shown light: DIVMTQSPLSLPVTPGEPASISCQASESLVHSNRNTYLHWYLQKPGQSPQLLIYKVSNRFSGVPDRFSGSGSGTDFTLKISRVEAEDVGVYYCSQNTHVPPTFGQGTKVEIERTVAAPSVFIFPPSDEQLKSGTASVVCLLNNFYPREAKVQWKVDNALQSGNSQESVTEQDSKDSTYSLSSTLTLSKADYEKHKVYACEVTHQGLSSPVTKSFNRGEC
101 relative (control = 100)	GpH7-B3 variant P271_11K/GpL16-k0 (Ho Ab) (antibody, human IgG1, kappa, Ho Ab: alteration in both H chains) heavy: not shown light: DIVMTQSPLSLPVTPGEPASISCQASESLVHSNRNTYLHWYLQKPGQSPQLLIYKVSNRFSGVPDRFSGSGSGTDFTLKISRVEAEDVGVYYCSQNTHVPPTFGQGTKVEIERTVAAPSVFIFPPSDEQLKSGTASVVCLLNNFYPREAKVQWKVDNALQSGNSQESVTEQDSKDSTYSLSSTLTLSKADYEKHKVYACEVTHQGLSSPVTKSFNRGEC
105 relative (control = 100)	GpH7-B3 variant I336_03V/GpL16-k0 (Ho Ab) (antibody, human IgG1, kappa, Ho Ab: alteration in both H chains) heavy: not shown light: DIVMTQSPLSLPVTPGEPASISCQASESLVHSNRNTYLHWYLQKPGQSPQLLIYKVSNRFSGVPDRFSGSGSGTDFTLKISRVEAEDVGVYYCSQNTHVPPTFGQGTKVEIERTVAAPSVFIFPPSDEQLKSGTASVVCLLNNFYPREAKVQWKVDNALQSGNSQESVTEQDSKDSTYSLSSTLTLSKADYEKHKVYACEVTHQGLSSPVTKSFNRGEC
104 relative (control = 100)	GpH7-B3 variant I336_06M/GpL16-k0 (Ho Ab) (antibody, human IgG1, kappa, Ho Ab: alteration in both H chains) heavy: not shown light: DIVMTQSPLSLPVTPGEPASISCQASESLVHSNRNTYLHWYLQKPGQSPQLLIYKVSNRFSGVPDRFSGSGSGTDFTLKISRVEAEDVGVYYCSQNTHVPPTFGQGTKVEIERTVAAPSVFIFPPSDEQLKSGTASVVCLLNNFYPREAKVQWKVDNALQSGNSQESVTEQDSKDSTYSLSSTLTLSKADYEKHKVYACEVTHQGLSSPVTKSFNRGEC
107 relative (control = 100)	GpH7-B3 variant I336_10E/GpL16-k0 (Ho Ab) (antibody, human IgG1, kappa, Ho Ab: alteration in both H chains) heavy: not shown light: DIVMTQSPLSLPVTPGEPASISCQASESLVHSNRNTYLHWYLQKPGQSPQLLIYKVSNRFSGVPDRFSGSGSGTDFTLKISRVEAEDVGVYYCSQNTHVPPTFGQGTKVEIERTVAAPSVFIFPPSDEQLKSGTASVVCLLNNFYPREAKVQWKVDNALQSGNSQESVTEQDSKDSTYSLSSTLTLSKADYEKHKVYACEVTHQGLSSPVTKSFNRGEC
107 relative (control = 100)	GpH7-B3 variant K334_10E/GpL16-k0 (Ho Ab) (antibody, human IgG1, kappa, Ho Ab: alteration in both H chains) heavy: not shown light: DIVMTQSPLSLPVTPGEPASISCQASESLVHSNRNTYLHWYLQKPGQSPQLLIYKVSNRFSGVPDRFSGSGSGTDFTLKISRVEAEDVGVYYCSQNTHVPPTFGQGTKVEIERTVAAPSVFIFPPSDEQLKSGTASVVCLLNNFYPREAKVQWKVDNALQSGNSQESVTEQDSKDSTYSLSSTLTLSKADYEKHKVYACEVTHQGLSSPVTKSFNRGEC
102 relative (control = 100)	GpH7-B3 variant P271_07I/GpL16-k0 (Ho Ab) (antibody, human IgG1, kappa, Ho Ab: alteration in both H chains) heavy: not shown light: DIVMTQSPLSLPVTPGEPASISCQASESLVHSNRNTYLHWYLQKPGQSPQLLIYKVSNRFSGVPDRFSGSGSGTDFTLKISRVEAEDVGVYYCSQNTHVPPTFGQGTKVEIERTVAAPSVFIFPPSDEQLKSGTASVVCLLNNFYPREAKVQWKVDNALQSGNSQESVTEQDSKDSTYSLSSTLTLSKADYEKHKVYACEVTHQGLSSPVTKSFNRGEC
104 relative (control = 100)	GpH7-B3 variant I336_18N/GpL16-k0 (Ho Ab) (antibody, human IgG1, kappa, Ho Ab: alteration in both H chains) heavy: not shown light: DIVMTQSPLSLPVTPGEPASISCQASESLVHSNRNTYLHWYLQKPGQSPQLLIYKVSNRFSGVPDRFSGSGSGTDFTLKISRVEAEDVGVYYCSQNTHVPPTFGQGTKVEIERTVAAPSVFIFPPSDEQLKSGTASVVCLLNNFYPREAKVQWKVDNALQSGNSQESVTEQDSKDSTYSLSSTLTLSKADYEKHKVYACEVTHQGLSSPVTKSFNRGEC
100 relative (control = 100)	GpH7-B3 variant E333_01G/GpL16-k0 (Ho Ab) (antibody, human IgG1, kappa, Ho Ab: alteration in both H chains) heavy: not shown light: DIVMTQSPLSLPVTPGEPASISCQASESLVHSNRNTYLHWYLQKPGQSPQLLIYKVSNRFSGVPDRFSGSGSGTDFTLKISRVEAEDVGVYYCSQNTHVPPTFGQGTKVEIERTVAAPSVFIFPPSDEQLKSGTASVVCLLNNFYPREAKVQWKVDNALQSGNSQESVTEQDSKDSTYSLSSTLTLSKADYEKHKVYACEVTHQGLSSPVTKSFNRGEC

— patent publication US20180155451A1 (published 2018)
